According to US20140141454A1:

Target: human EpCAM immobilized with paraformaldehyde (on PFA-treated MCF-7 or PC-3 cells) (human) (UniProt P16422)
Experiment: liquid-phase ELISA on PC-3 cells in suspension, PFA-treated against untreated

Sequence of UniProt P16422 (P16422 24-314 limits assumed): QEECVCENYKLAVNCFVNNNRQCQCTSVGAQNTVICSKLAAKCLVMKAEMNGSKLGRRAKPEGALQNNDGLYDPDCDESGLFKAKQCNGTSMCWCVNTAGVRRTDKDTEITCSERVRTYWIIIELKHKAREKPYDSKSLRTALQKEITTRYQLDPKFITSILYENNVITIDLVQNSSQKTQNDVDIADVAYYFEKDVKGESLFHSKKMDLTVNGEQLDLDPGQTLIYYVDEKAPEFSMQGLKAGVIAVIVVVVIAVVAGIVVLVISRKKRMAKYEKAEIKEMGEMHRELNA

fold change of ELISA signal after 4% PFA treatment: < 1.5 fold
Substance: HEA-125 anti-EpCAM monoclonal antibody
